Patent US20030129189A1, “Tumor necrosis factor-gamma” (priority 1994, published 2003)

Columns and labels:
Test in all cases: flow cytometry on transiently transfected cells
[1] = target: T1, LTβR on transiently transfected cells (UniProt P36941 31-435, limits assumed)
T1 construct: whole, on cells
Protocol: (§1) One million cells, in 0.1 ml of FACS buffer (PBS, 0.1% BSA, 0.1% NaN₃), were incubated with 0.1-1 microgram of protein or antibody at RT for 15 min. The cells were washed with 3 ml of FACS buffer, reacted with biotinylated primary antibody, and stained with PE-conjugated secondary antibody at RT for 15 min. Cells were then washed again, resuspended in 0.5 microgram/ml of propidium iodide, and live cells were gated and analyzed on a FACScan using the CellQuest software (BD Biosciences).

[2] = target: T2, CD27 on transiently transfected cells (UniProt P26842 20-260, limits assumed)
T2 construct: whole, on cells
T2 sequence (looked up): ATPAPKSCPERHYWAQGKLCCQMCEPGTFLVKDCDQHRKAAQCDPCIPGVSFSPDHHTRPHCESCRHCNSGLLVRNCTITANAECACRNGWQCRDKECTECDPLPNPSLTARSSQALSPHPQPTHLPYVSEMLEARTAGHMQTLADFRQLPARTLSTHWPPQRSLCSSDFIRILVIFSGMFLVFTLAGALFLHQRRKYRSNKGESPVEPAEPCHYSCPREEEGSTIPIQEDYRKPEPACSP
Protocol: as §1

[3] = target: T3, DR6 on transiently transfected cells (UniProt O75509 42-655, limits assumed)
T3 construct: whole, on cells
T3 sequence (looked up): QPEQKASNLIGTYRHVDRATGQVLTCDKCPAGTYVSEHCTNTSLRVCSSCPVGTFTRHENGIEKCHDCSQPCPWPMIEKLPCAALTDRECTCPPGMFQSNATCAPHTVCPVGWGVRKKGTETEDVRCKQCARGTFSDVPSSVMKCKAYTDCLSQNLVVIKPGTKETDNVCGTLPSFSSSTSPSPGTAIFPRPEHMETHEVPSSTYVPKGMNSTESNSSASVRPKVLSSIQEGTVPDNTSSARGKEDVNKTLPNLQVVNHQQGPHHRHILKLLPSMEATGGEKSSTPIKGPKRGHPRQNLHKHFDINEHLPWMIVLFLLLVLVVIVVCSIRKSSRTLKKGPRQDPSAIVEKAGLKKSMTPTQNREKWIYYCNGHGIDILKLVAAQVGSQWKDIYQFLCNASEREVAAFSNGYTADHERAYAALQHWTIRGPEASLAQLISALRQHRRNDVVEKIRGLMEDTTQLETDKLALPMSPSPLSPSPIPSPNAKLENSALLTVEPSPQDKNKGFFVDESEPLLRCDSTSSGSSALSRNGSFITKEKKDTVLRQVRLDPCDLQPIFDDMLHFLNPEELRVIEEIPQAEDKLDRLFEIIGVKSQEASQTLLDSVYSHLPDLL
Protocol: as §1

[4] = target: T4, DcR1 on transiently transfected cells (UniProt O14798 26-236, limits assumed)
T4 construct: whole, on cells
T4 sequence (looked up): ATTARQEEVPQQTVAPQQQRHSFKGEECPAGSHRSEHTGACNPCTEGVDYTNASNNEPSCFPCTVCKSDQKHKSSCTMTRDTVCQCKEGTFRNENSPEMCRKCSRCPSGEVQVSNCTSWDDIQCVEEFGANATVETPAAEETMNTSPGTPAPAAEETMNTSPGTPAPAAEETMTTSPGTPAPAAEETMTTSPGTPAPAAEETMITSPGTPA
Protocol: as §1

[5] = target: T5, DcR2 on transiently transfected cells (UniProt Q9UBN6 56-386, limits assumed)
T5 construct: whole, on cells
T5 sequence (looked up): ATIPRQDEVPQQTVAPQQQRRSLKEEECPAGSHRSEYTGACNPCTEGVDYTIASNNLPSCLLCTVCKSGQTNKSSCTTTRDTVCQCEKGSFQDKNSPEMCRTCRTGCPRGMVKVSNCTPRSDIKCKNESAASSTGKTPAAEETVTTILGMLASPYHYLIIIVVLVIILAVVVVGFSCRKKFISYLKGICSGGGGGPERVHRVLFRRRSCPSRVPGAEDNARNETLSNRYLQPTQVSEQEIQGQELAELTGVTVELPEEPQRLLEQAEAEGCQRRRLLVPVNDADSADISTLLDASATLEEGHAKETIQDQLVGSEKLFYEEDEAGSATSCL
Protocol: as §1

[6] = target: T6, HveA on transiently transfected cells (UniProt Q92956 39-283, limits assumed)
T6 construct: whole, on cells
T6 sequence (looked up): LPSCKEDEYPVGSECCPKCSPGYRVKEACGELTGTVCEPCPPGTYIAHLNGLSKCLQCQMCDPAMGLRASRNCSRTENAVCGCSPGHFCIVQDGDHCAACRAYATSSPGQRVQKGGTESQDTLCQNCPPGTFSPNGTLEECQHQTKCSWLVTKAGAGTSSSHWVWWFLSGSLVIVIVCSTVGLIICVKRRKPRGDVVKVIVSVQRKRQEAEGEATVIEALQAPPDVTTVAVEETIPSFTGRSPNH
Protocol: as §1

[7] = target: T7, AITR on transiently transfected cells (UniProt Q9Y5U5 26-241, limits assumed)
T7 construct: whole, on cells
T7 sequence (looked up): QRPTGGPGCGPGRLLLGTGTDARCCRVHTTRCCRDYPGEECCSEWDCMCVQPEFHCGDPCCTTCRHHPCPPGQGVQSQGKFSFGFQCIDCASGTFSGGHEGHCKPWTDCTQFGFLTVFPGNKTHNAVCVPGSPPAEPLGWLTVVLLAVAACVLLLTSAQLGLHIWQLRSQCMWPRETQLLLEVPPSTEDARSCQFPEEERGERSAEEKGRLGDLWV
Protocol: as §1

Measured: binding result

T1 sequence (P36941 31-435 limits assumed): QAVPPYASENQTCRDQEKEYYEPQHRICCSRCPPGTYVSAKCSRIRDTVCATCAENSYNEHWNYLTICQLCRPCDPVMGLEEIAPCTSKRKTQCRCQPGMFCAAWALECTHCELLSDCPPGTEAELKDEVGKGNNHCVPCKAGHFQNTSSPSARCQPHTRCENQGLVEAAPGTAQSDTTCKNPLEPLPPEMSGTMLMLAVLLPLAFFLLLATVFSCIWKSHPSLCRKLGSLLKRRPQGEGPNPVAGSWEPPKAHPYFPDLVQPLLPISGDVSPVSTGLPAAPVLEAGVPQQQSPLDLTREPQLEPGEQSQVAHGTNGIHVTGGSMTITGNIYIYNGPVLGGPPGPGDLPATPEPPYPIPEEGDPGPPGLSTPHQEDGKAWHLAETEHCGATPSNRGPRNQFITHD

B1: FLAG-tagged soluble TNF-gamma-beta (aa 72-251) (ligand)
chain: LKGQEFAPSHQQVYAPLRADGDKPRAHLTVVRQTPTQHFKNQFPALHWEHELGLAFTKNRMNYTNKFLLIPESGDYFIYSQVTFRGMTSECSEIRQAGRPNKPDSITVVITKVTDSYPEPTQLLMGTKSVCEVGSNWFQPIYLGAMFSLQEGDKLMVNVSDISLVDYTKEDKTFFGAFLL
notes: also called FLAG-TL1β; FLAG-TNF-gamma-beta; not shown: The N-terminal FLAG tag (pFLAG-CMV-1 vector) and any vector linker
no binding: all assays above
